Measurements reported in article PMC4840364.

Target: glycoprotein Ibα (GPIbα) on human platelets, P07359
Test: flow cytometry on cells
Details: chain shown with the change, human platelets incubated 20 min, washed once, FITC-conjugated goat anti-mouse IgG, MFI of 10,000 cells, read off a plot

- response ([mAb] about 37 nM (read from x axis), parent: est. 320): 8 a.u.
- response ([mAb] about 110 nM (read from x axis), parent: est. 290): 10 a.u.
B1: wild-type 5G6 Fab fragment (recombinant) H:T102A; H:T103A; H:T104A; H:T105A; L:D93A (protein)
chain 1: QVTLKESGPGILQPSQTLSLTCSFSGFSLSTSNMGVVWIRQPSGKGLEWLLHILWNDGKFYNPALKSRLTISKDTYNNQVFLKIANVDTADTATYYCARLFAAAASGYFDVWGAGTTVTVSS
chain 2: DIQMTQSPASLSASVGETVTITCRASGNIYNYLAWYQQKQGKSPQLLVYNAKTLADGVPSRFSGSGSGTQYSLKINSLQPEDFGSYFCQHFWATPWTFGGGTKLEIK
